For the assay, the target named is trypsin from bovine pancreas (Sigma, St. Louis) (bovine) (UniProt P00760). In words: inhibition kinetics of trypsin (0.005 µM) digesting EGFP-T/C1 at 0-100 nM leupeptin, absorbance at 490 nm, fitted with Enzfitter.

The values below come from patent US20150010920A1.

trypsin from bovine pancreas (Sigma, St. Louis) (bovine), sequence (P00760 24-246): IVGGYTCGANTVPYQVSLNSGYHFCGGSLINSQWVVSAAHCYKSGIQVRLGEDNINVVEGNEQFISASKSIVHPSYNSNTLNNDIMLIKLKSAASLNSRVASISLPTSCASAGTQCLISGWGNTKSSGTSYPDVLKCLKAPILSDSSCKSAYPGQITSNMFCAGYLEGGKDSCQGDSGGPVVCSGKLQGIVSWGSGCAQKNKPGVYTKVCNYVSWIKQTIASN

In general, Ki refers to a measure of affinity in units of concentration, obtained from inhibition or displacement. Read a low Ki as higher affinity. As for leupeptin (Sigma, St. Louis) (peptide), the Ki amounted to 0.0311 µM.
